Source: article PMC5952411 (EBioMedicine, 2018)

Tests used:
Assay in all cases: BLI
[1] = target: Pup^E (prokaryotic ubiquitin-like protein Pup with its C-terminal glutamine converted to glutamate), biotinylated (M. tuberculosis) (UniProt P9WHN5)
[2] = target: T1, M. tuberculosis PafA S119A (M. tuberculosis H37Rv, UniProt P9WNU7 1-452, S119A)
T1 sequence: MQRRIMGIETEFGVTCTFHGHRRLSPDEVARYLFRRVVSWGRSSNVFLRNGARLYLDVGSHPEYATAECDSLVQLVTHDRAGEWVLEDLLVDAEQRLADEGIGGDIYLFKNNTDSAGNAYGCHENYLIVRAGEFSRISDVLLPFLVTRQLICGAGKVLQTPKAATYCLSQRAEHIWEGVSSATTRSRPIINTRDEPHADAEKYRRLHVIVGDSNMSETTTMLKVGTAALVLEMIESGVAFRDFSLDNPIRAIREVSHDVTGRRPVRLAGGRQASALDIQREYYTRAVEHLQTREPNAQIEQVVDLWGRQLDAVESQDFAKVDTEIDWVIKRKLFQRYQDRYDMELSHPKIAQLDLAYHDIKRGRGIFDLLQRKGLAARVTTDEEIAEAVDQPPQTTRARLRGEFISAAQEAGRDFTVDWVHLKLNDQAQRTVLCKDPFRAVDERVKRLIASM

[3] = target: T2, M. tuberculosis PafA (Pup ligase), wild type (M. tuberculosis H37Rv, UniProt P9WNU7 1-452)
T2 sequence: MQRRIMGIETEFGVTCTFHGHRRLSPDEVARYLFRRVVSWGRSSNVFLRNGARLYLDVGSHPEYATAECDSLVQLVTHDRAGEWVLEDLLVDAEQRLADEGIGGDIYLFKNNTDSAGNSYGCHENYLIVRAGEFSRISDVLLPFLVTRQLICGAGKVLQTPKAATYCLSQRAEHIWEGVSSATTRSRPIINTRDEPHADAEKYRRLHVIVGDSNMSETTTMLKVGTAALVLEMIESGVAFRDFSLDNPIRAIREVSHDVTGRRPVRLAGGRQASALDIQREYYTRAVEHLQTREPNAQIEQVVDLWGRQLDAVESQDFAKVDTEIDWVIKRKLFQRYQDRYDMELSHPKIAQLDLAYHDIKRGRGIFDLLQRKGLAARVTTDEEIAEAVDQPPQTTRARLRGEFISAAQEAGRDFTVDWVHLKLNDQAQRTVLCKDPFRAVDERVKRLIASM

M. tuberculosis PafA pre-incubated with AEBSF (AEBSF covalently bound at S119) (from UniProt P9WNU7 1-452) (enzyme)
fold KD against WT PafA [1]: 2 fold

B1: Pup^E (prokaryotic ubiquitin-like protein Pup with its C-terminal glutamine converted to glutamate), biotinylated (natural protein)
chain: MAQEQTKRGGGGGDDDDIAGSTAAGQERREKLTEETDDLLDEIDDVLEENAEDFVRAYVQKGGE
modifications: biotinylated with EZLink Sulfo-NHS-LC-Biotin (sites not given)
binding result [2]: binds | binding result [3]: binds
